In the RNAGym collection of RNA variant scans (doi:10.1073/pnas.2313332121):

B1: TPR t1 (parent)
chain: GACCAAUCUGCCCUCAGAGCUCGAGAACAUCUUCGGAUGCAGAGGAGGCAGGCUUCGGUGGCGCGAUAGCGCCAACGUCCUCAACCUCCAAUGCAUCCCACCACAUGAUGAUGCCUGAAGAGCCUUGGUUUUUUG

Variants of: B1
Assay: polymerase ribozyme fitness, log enrichment relative to wild type (log ratio); higher = more active; in vitro selection for triplet polymerase activity
How it was run: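 Mutant libraries were PCR-built and transcribed for each subunit of a heterodimeric triplet polymerase ribozyme and selected for one round in triplicate at −7 °C, frozen, before gel excision of extended constructs and streptavidin-bead capture. Input and output libraries were Illumina-sequenced, keeping genotypes with ≥10 input reads and ≥1 read per output. Fitness is a logarithmic ratio of genotype to wild-type enrichment, in base 2, using inverse-variance-weighted replicate averages.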

Q: Which “polymerase ribozyme fitness (log ratio)” value does the source give for A16G U92C C102A here?
A: Its value is -5.14.

Q: For U14G G45C G110U, which “polymerase ribozyme fitness (log ratio)” value is on record?
A: The value was -3.81.

Q: For A16U C22U C62U U78C U92G G120A C123A, which “polymerase ribozyme fitness (log ratio)” value is on record?
A: Its value is -6.53.

Q: For A16G C94U, which “polymerase ribozyme fitness (log ratio)” value is on record?
A: The value was -1.93.

Q: With C15U A46C C70G as the variant, how does the “polymerase ribozyme fitness (log ratio)” value read?
A: The value was -4.3.

Q: Which “polymerase ribozyme fitness (log ratio)” value does the source give for C15U A91C here?
A: The value was -2.75.

Q: Which “polymerase ribozyme fitness (log ratio)” value does the source give for C15A A84U here?
A: Its value is -1.41.

Q: With A16U C114U as the variant, how does the “polymerase ribozyme fitness (log ratio)” value read?
A: The value was -4.86.

Q: Which “polymerase ribozyme fitness (log ratio)” value does the source give for C15U G39C A66U G69C A75U here?
A: The value was -3.53.

Q: Which “polymerase ribozyme fitness (log ratio)” value does the source give for A16C G48A C73U here?
A: The value was -3.7.

Q: Which “polymerase ribozyme fitness (log ratio)” value does the source give for C15U C102U here?
A: The value was -3.1.

Q: Which “polymerase ribozyme fitness (log ratio)” value does the source give for U14C U54G G93C C104U U116G here?
A: Its value is -3.88.

Q: Which “polymerase ribozyme fitness (log ratio)” value does the source give for C15U C72U here?
A: The value was -1.62.

Q: For U14A G44U G117U A118U, which “polymerase ribozyme fitness (log ratio)” value is on record?
A: The value was -4.78.

Q: With C15A U92A U132A as the variant, how does the “polymerase ribozyme fitness (log ratio)” value read?
A: Its value is -4.82.

Q: For C15U C70G U78A C86G G127A, which “polymerase ribozyme fitness (log ratio)” value is on record?
A: Its value is -5.32.

Q: Which “polymerase ribozyme fitness (log ratio)” value does the source give for U14A C72G here?
A: Its value is -2.35.

Q: With C15U G39C as the variant, how does the “polymerase ribozyme fitness (log ratio)” value read?
A: Its value is -1.93.

Q: For C15U G39A, which “polymerase ribozyme fitness (log ratio)” value is on record?
A: Its value is -3.08.

Q: For A16C A41U G52C C64G C82G G110C, which “polymerase ribozyme fitness (log ratio)” value is on record?
A: Its value is -6.92.

Q: Which “polymerase ribozyme fitness (log ratio)” value does the source give for U14C C40A U87C here?
A: Its value is -3.01.

Q: With C15G C86U U116G as the variant, how does the “polymerase ribozyme fitness (log ratio)” value read?
A: Its value is -2.95.

Q: Which “polymerase ribozyme fitness (log ratio)” value does the source give for A16C G52A C70U C73U here?
A: The value was -3.8.

Q: For C15U C73U, which “polymerase ribozyme fitness (log ratio)” value is on record?
A: Its value is -1.36.

Q: For C15U G71A C79U, which “polymerase ribozyme fitness (log ratio)” value is on record?
A: Its value is -1.53.

Q: For U14A G36A, which “polymerase ribozyme fitness (log ratio)” value is on record?
A: Its value is -3.62.

Q: Which “polymerase ribozyme fitness (log ratio)” value does the source give for A16G C53G A84C C88A C101G here?
A: The value was -4.3.

Q: With U14C C49A C56U U92G C97U A111U as the variant, how does the “polymerase ribozyme fitness (log ratio)” value read?
A: Its value is -6.85.

Q: With U14G C73G C82A as the variant, how does the “polymerase ribozyme fitness (log ratio)” value read?
A: Its value is -3.08.

Q: With C15U C124U as the variant, how does the “polymerase ribozyme fitness (log ratio)” value read?
A: Its value is 0.776.

Q: For U14A G44C G61U C85G U96C G113U, which “polymerase ribozyme fitness (log ratio)” value is on record?
A: The value was -6.21.

Q: For U14C G113A, which “polymerase ribozyme fitness (log ratio)” value is on record?
A: The value was -3.18.

Q: With U14G C40A G71U A121G G127U as the variant, how does the “polymerase ribozyme fitness (log ratio)” value read?
A: Its value is 0.306.

Q: For C15G A26U G44C G117C, which “polymerase ribozyme fitness (log ratio)” value is on record?
A: Its value is -2.36.

Q: For C15U G71U C101U, which “polymerase ribozyme fitness (log ratio)” value is on record?
A: Its value is -1.24.

Q: For C15U A83G U87C, which “polymerase ribozyme fitness (log ratio)” value is on record?
A: The value was -2.34.

Q: Which “polymerase ribozyme fitness (log ratio)” value does the source give for A16C C82G here?
A: The value was -3.22.

Q: For A16C G71C U126C U131A, which “polymerase ribozyme fitness (log ratio)” value is on record?
A: The value was -4.45.

Q: With A16C A37C U112C as the variant, how does the “polymerase ribozyme fitness (log ratio)” value read?
A: The value was -2.37.

Q: For C15G C70G, which “polymerase ribozyme fitness (log ratio)” value is on record?
A: Its value is -3.8.

Q: With C15G C49G C89U C115G as the variant, how does the “polymerase ribozyme fitness (log ratio)” value read?
A: The value was -4.39.

Q: Which “polymerase ribozyme fitness (log ratio)” value does the source give for C15A A41C C72A here?
A: Its value is -2.94.

Q: Which “polymerase ribozyme fitness (log ratio)” value does the source give for C15G C49G U106C C124U here?
A: The value was -2.11.

Q: Which “polymerase ribozyme fitness (log ratio)” value does the source give for C15U C104U G117U here?
A: Its value is -0.366.

Q: Which “polymerase ribozyme fitness (log ratio)” value does the source give for U14G G44C G71U U78A here?
A: Its value is -3.39.

Q: For U14A C123U G127A, which “polymerase ribozyme fitness (log ratio)” value is on record?
A: Its value is -0.509.

Q: For C15G G17C, which “polymerase ribozyme fitness (log ratio)” value is on record?
A: Its value is -4.24.

Q: With U14G A68G U112G as the variant, how does the “polymerase ribozyme fitness (log ratio)” value read?
A: Its value is -5.15.

Q: With U14C A46U A74G as the variant, how does the “polymerase ribozyme fitness (log ratio)” value read?
A: Its value is -1.32.

Q: With U14A C79G A83U as the variant, how does the “polymerase ribozyme fitness (log ratio)” value read?
A: Its value is -5.11.

Q: With U14A G61A as the variant, how does the “polymerase ribozyme fitness (log ratio)” value read?
A: The value was -1.88.

Q: Which “polymerase ribozyme fitness (log ratio)” value does the source give for U14C G42C U92G here?
A: The value was -4.23.

Q: Which “polymerase ribozyme fitness (log ratio)” value does the source give for C15G G25C A41U U109A here?
A: Its value is -5.74.

Q: For C15U A95G C114G, which “polymerase ribozyme fitness (log ratio)” value is on record?
A: The value was -4.48.

Q: Which “polymerase ribozyme fitness (log ratio)” value does the source give for C15A G117A here?
A: Its value is -2.72.

Q: Which “polymerase ribozyme fitness (log ratio)” value does the source give for C15U G47U G52C C53A C124G here?
A: Its value is -1.51.

Q: Which “polymerase ribozyme fitness (log ratio)” value does the source give for C15U A43G C124A here?
A: Its value is 0.00445.

Q: For A16G C62U, which “polymerase ribozyme fitness (log ratio)” value is on record?
A: The value was -1.57.

Q: With C15A G39A C53A U125A as the variant, how does the “polymerase ribozyme fitness (log ratio)” value read?
A: Its value is -3.62.

Q: For C15U G63U, which “polymerase ribozyme fitness (log ratio)” value is on record?
A: Its value is -3.19.

Q: Which “polymerase ribozyme fitness (log ratio)” value does the source give for A16G C28U U54G A121G here?
A: The value was -0.979.

Q: For U14A G63C C82U U112G, which “polymerase ribozyme fitness (log ratio)” value is on record?
A: Its value is -1.65.

Q: With U14G G60C C70U as the variant, how does the “polymerase ribozyme fitness (log ratio)” value read?
A: Its value is -3.06.

Q: With C15G A27G as the variant, how does the “polymerase ribozyme fitness (log ratio)” value read?
A: Its value is -4.15.

Q: For C15U A37G C64U, which “polymerase ribozyme fitness (log ratio)” value is on record?
A: The value was -1.81.

Q: Which “polymerase ribozyme fitness (log ratio)” value does the source give for C15U A18U C20U C28G G61U U87G C115U here?
A: Its value is -5.

Q: For A16U C49A C72A, which “polymerase ribozyme fitness (log ratio)” value is on record?
A: The value was -1.6.

Q: With C15A C101G C124G as the variant, how does the “polymerase ribozyme fitness (log ratio)” value read?
A: Its value is 0.0121.

Q: For A16C C53U C86G, which “polymerase ribozyme fitness (log ratio)” value is on record?
A: The value was -2.99.

Q: For A16U C56A G117U, which “polymerase ribozyme fitness (log ratio)” value is on record?
A: The value was -3.11.

Q: With C15A A74G G113A as the variant, how does the “polymerase ribozyme fitness (log ratio)” value read?
A: The value was -4.02.

Q: Which “polymerase ribozyme fitness (log ratio)” value does the source give for C15U A95G here?
A: Its value is -1.71.

Q: With U14G U87G G127C as the variant, how does the “polymerase ribozyme fitness (log ratio)” value read?
A: Its value is -4.35.

Q: With C15A C40U C115U U131A as the variant, how does the “polymerase ribozyme fitness (log ratio)” value read?
A: The value was -1.85.

Q: For U14C U112G G113U, which “polymerase ribozyme fitness (log ratio)” value is on record?
A: The value was -5.07.

Q: For C15U G52A G93A A95G, which “polymerase ribozyme fitness (log ratio)” value is on record?
A: Its value is -2.44.

Q: Which “polymerase ribozyme fitness (log ratio)” value does the source give for U14C G17C C20A A24U A43C C85U A111G here?
A: Its value is -6.11.

Q: Which “polymerase ribozyme fitness (log ratio)” value does the source give for C15U G36C U54C C85A G117U G127C here?
A: Its value is -5.33.

Q: Which “polymerase ribozyme fitness (log ratio)” value does the source give for C15A C20U C73A G93A here?
A: The value was -3.83.

Q: With U14A C82A C98G G110C as the variant, how does the “polymerase ribozyme fitness (log ratio)” value read?
A: The value was -7.59.

Q: Which “polymerase ribozyme fitness (log ratio)” value does the source give for A16G A84U A90C here?
A: Its value is -2.9.

Q: With C15G A37G A66U as the variant, how does the “polymerase ribozyme fitness (log ratio)” value read?
A: The value was -5.5.

Q: With C15U G17C A121C as the variant, how does the “polymerase ribozyme fitness (log ratio)” value read?
A: Its value is -2.22.

Q: For C15G C73A C88G, which “polymerase ribozyme fitness (log ratio)” value is on record?
A: Its value is -3.31.
